From a protein production outcome set (Wang et al. 2014) come the findings set out here.

The nature of the data set: label from the status in PepcDB records.
As to “MLKILVRLYLVIIVAYAGALLFIPDTIVGLFRDRFMAYNLDQAKGVQALIVRQFRQAPREQWPAVEQELASDFAPLELQLLRRDQAGLSDEEQARLEQGLYAVRIAEWGYYETVLAPLDKEWLIRLHSPPDPLDINVLSWGVTVLIGAAMLGCLLLWVWPHWRDLERLKETARRLGQGQMAERTHISPHSNIGELAGVFDTMASDLERHVNQQRELLNAVSHELRTPLTRLDFGLVLLFDEVPPASRKRLLELVGHVRELDELVLELLSYSRLYNADQARERVEVSLLELVDSVLGGFAEELDGRGIQWEVRAEGELPRFVLDPRLTARAVQNLVRNAMRYCDESLLLRLRLEADGACLLTVEDDGIGVPVEERERVFQPFYRLDRSRDRNTGGFGLGLAISRRAIEGQGGTLTLAQSALGGAQFRIRLPAGG”, the protein production result is listed as “failed”.

With “MLKKGNEMKAVIVYASVHHGNTKKIEEAMASVISADVIDVTRKIKPDLSGYDVIGFVSGVYFHTFHEGIKKCIEENMSSKGQKVFLVATCGLGYRDYTKGMKDTLAKKDVLCMGSFQCRGWDTYGIFGKIGGIAKKHPNDRDLKEAQEFVLKTVCKTNNLEHHHHHH”, the protein production result was “failed”.

In the case of “MLKKMSPSDWRPFYVSIARNMTNGIRGSIGGRLASWACLFQVTCGVAMKMPTLLSVSLLAALSLPAAAQTAPPQDVPFDGTLKIDVDATDLAHRIFKVNITMPAKPGPMTLLYPQWIPGDHSPTGPIDKLAGLVIKVDGKVVPWKRDQFDVYAFKVDVPQGATELTAEFKFLSPQAGNQGRVMMTPEMLNLQWNTTALYPAGYVVRNIKVQASVTLPAGWSYATALETDRRVGDTVSFKPIDFDDLVDSPMFAGKYYKRVELSTGKQPVYLNVFADEAKSLEAKPEQIKAHAALVQQMDKLYGARHFDHYEFLLALTKKLGGIGLEHHRSSENSGPPNYFTEWDKSWTMRDLLAHEFNHSWNGKYRRGADLSTPNFNVPMGDSLLWLYEGQTQFWGEVLAARSGLWTQDQARDMLAGVAATYERGRPGMTWRTLQDTTNDPTMSMRRSKPYRSYQMSEDYYSGAQMMWLEVDSKLRALTNNKRSIDDFAKAFFGMKNGDWDVNPYTFDDIVSTLNGVAAYDWASLLRERMDGHGSLNGGIEANGWKLVYNDEPNLAIKTYESNKNDVSLTYSLGLSLEGSGEVSEVLWDSPAFNAGIINGNSIVAVNGRAFSADVIKDAIKAAKGTAAPIELLVKRGDRYETVRIDYHGGLLYPHLERIAGKPDRLGELYKAR”, the protein production result is listed as “failed”.

With “MLKKYIPLVARSFLAVIFIYAGVNKVFNFAQTSESMAKAGLPIVGVLLIFTIAFQILGGLSIILGYKAEIGAILLIIFLIPATIVFHNPFADPSQFNNFFKNLSIIGGLLLILAYGSGTLSLEASDRSSYVSQPEE”, the protein production result was “failed”.

Regarding “MLKLLWIALGGSLGALCRYGLSVLARWGLPPTVPWGTLAANLVGCFLIGGLWVLAAQYSFSEELRVFIFTGGIGSLTTFSTYSLESLLLLREGRVWAGLANVLVSNVLGLVLVAIGAGCALFLLGGPVAAFGA”, the protein production entry is recorded as “failed”.

“MLKMKNNGGGCLAYISDCSVYLPVWKLKRDEISKETGMPSMGGERAVAHWDEDSITMAVEAARKFDGAFDAVIFASSSPPFRIKQCASFIASALDLPDSTFTMDITDTMRAATDALITANEFVDSGRFSRVLVVAGDKIPTKPGTLYEQLYGDAAAAVVVEKEGGAKILGYSTSTKPLPGSWMLADDDTVRDYDMRVDARYGYAASVQKAAMPLFAKLGLSPADIDRIVASAPDPKSYQGLLKAVGARPEEFYFDSVGIAGSAHPLLLLATQLEREGRILLGGYGEGADVIAVEIEQAMDSNMGRMLESRKEISYGDYLFNRGFVGVRDAPDRPSLTKFWRDEKSIIRFYGMKCKSCGTVSYPISRCCIECGAKDNYEEVRLGERGKIYTFTIDYLVMPGNYAGDGVHPHFIAVVDLDGGGRVLFELTDTLRDFSGVECDAEVERTFRLLFEKNRFRYYGWKARLPRLEHHHHHH”: the protein production result was “not failed”.

Turning to “MLKNFNGRPSLATVLKASTVAGIAAAVLATGVPLEITRSYAEAVKVQAPAVPSFANVVDAVSPAVVSVRVENRVNPVSDNNNDGFSFDFNGRGFDDLPDDHPLKRFFKQFGQDPNDQQGHSRRFGQNGPNGGPNGPGGKGRLRPVAQGSGFFISEDGYIVTNNHVVSDGQAFVAVMNDGTELDAKLIGKDPRTDLAVLKVDGKGKKFTYVNWADDNNVRVGDWVVAVGNPFGLGGTVTAGIVSARGRDIGSGPYDDYLQVDAAVNRGNSGGPTFNLSGEVVGINTAIFSPSGGSVGIAFAIPASTARDVVADLMKDGQVSRGWLGVQIQPVTKDIAESIGLSEPSGALVVAPQAGSPGDKAGMKAGDVVTALNGETIKDARDLSRRIGAMQPGSKVELSVWRAGKAQPLTVELGTLPIDQKDASADDNSQPQQPEAPASEKALADLGLTVGPSDDGKGLAITGIDPDSDAADKGIKEGEKITSVNNQEVASPEDVVKVLNQAKKDGRTRALFQIQSNEGSRFVALPINGQG”, the protein production result was “failed”.

On to “MLKNIFKISNIPAVLWGDKSEKIFIAVHGNMSNKEDAVIQIVAEEADRKGYQVLSFDLPEHGERKNDNTPCKVQFCVNELSIIMNYAKEHWKEINVFACSMGAYFSLLAFQNDVIEKALFLSPVVNMERIIENMMKWFNVTPELLQKEMTIETPIGQKLYWDYLCYVKEHPISTWNTDTYIMYGAKDELCEFETINYFTKKHRCELEVMETGEHYLHTEEQLKIFEQWLHKHID”, for which the protein production result was “failed”.

Consider “MLKQRIITALILLPIALCGFFLLEGSGFALFIGLVVSLGAWEWARLAGFEAQPARVAFAVVVAALLFLMHLVPGVAPWVLGAAVLWWALATYLVLTYPRSSEQWSGAAPKLLIGLLILLPAWQGLVFIKQLPLGNWLIMAVMVLVWGADIGAYFSGKAFGKRKLAPQVSPGKSWEGVYGGLALSLVITAVVGLVRDWTLGQMILGLLGAAIVVFISVVGDLTESMFKRQSGIKDSSNLLPGHGGVLDRIDSLTAAIPVFAVLLWMAAL”, for which the protein production result is reported as “failed”.

With “MLKSGETNGVQSNVVRASSRMRGLAEPGIKDNQGRTWRRLIVTDCFISTKVWYSLYKGTLEATRKRVSDYISDLTMVEIIGLQAFTTDGGIAS”, the protein production result is listed as “failed”.

Regarding “MLKTPYYLIDKRALLQNLEVIRRIRERSGAKVLLALKCFATWSVFDLMREYMDGTTSSSLFEVRLGREKFGGETHAYSVAYAEDDIDDVVACADKIIFNSLSQLERYAPRASAIPRGLRLNPGISVSGYDLANPARPFSRLGETDLDRIAQAMPMIDGFMVHNNCENRDFTRFDALLTELEHRYGHLLGQINWISLGGGIHFTEPGYALDAFCDRLRRFSEQYGVQVYLEPGEAAITNTATLEVTVLDVMRNEKNLAIVDAATEAHMLDLLIYRMSARVQPDQGPHRYVIYGNSCLAGDVFGEFSFESPLQPGSRISIQDAAGYTMVKKNWFNGVRMPAIAIRELDGEIRLVREFGYQDYVDSLS”, the protein production entry is “failed”.

With “MLLDGTPFARRRVTSLTSANRKGAARRTCPEAAGGPMASSAGLALCAQTLVVRGGSRFLAFSTTGSDDDCVFTYDCSTAEKKATPEDKGEDGQPADTGSDSILASTFSKSGRYFALTDDSKRLILFRTKPWQCLSARTIACQCVYFCVLDGIKCVLFRNSTRQVLSQACIEPAHCCGAVVSGSLCPLVIXAVSPDDQFVLTADRDEKIRVSWAAAPHSIESFCLGHTEFVSRILVVPSHPELLLSSSGDGTLRLWEYRSGRQLQCCDLAGLQEPGEQPGHKGLAASRIAFWGQESYVVLLCECVPVVFVFQLDASRQQLVFRQRLTFPHRVWDVVFEEARGLWVLQDCRDAPLVLWRPVGGEWQAAPDGAVSPRLCSHLRESWAMLEGSVGTDDSFRSLYKATFDNMTSYLKKKEERLQQQLKKKRQRSPFPGSPEQTKKACPGQSALSC”, the protein production result is “failed”.

For the sequence “MLLEQQKQLISLIQAAVAQCLPEAQAQVQLERPKVAAHGDIATNVAMQLAKPARRNPRELAQGIVDALMAQPQARELIQDAEIAGPGFINFRLTPAARQAVVQAVASQADA”, the protein production result is given as “failed”.

In the case of “MLLFTPGPVAINEEMRTSFSQPMPHHRTKDFEKIFQSVRENLKKMTGLEEVLLLSSSGTGAMEASVISLCQKELLFVNAGKFGERFGKIAKAHSIKAHELVYEWDTPAQVDEILSVLKANPNIDAFCIQACESSGGLRHPVEKIAQAIKETNPNVFVIVDAITALGVEPLEITHVDALIGGSQKAFMLPPAMSLVALSQNAIERIEERNVGFYFNLKSELKNQRNNTTSYTAPILHTLGLQRYFELVQNLGGFEALYRETKKAALATQKAVLALGLKIFPKSPSLSMTTIVNEHAKELRNLLKEKYQVQFAGGQEPYKDALIRINHMGIIPVYKSAYALNALELALNDLDLREFDGVANATFLKQYYGI”, the protein production entry is recorded as “failed”.
